Test results from patent US20070036750A1.

How the values were obtained:
[1] = molecular target: human CCR2 (full-length, Genbank Accession No. NM-000648) on membranes of Ba/F3-hCCR2 cells (human) (UniProt P41597); assay: competition with radioiodinated human MCP1, SPA, membranes of cells containing CCR2
[2] = molecular target: human CCR2 (full-length, Genbank Accession No. NM-000648) on membranes of Ba/F3-hCCR2 cells (human) (UniProt P41597); assay: competition with 30 pM radioiodinated human MCP1, SPA, Ba/F3-hCCR2 cell membranes

| fold less potent than unlabeled rhMCP1 [1] [fold] | IC50 [2] [nM] | Ki [2] [nM] | Substance |
| --- | --- | --- | --- |
| 5 to 12 | 0.624 | 0.287 | hMCP1-mIg (NH2-human MCP1-Mouse Ig Heavy chain γ1 (hinge-CH2-CH3)-COOH) (Fc fusion) |
| – | 0.183 | 0.0845 | Recombinant human MCP1 (rhMCP1) (R & D Systems) (from UniProt P13500 24-99) (ligand) |
